{
  "source": "paper PMC5726918",
  "origin": "cited, not measured here",
  "target": "Asp3 (position 3, ---AADAA---)",
  "experiment": "potentiometry",
  "settings": "free peptide in solution",
  "data": [
    {"protein": "AADAA", "note": "[Alanine-based pentapeptide AADAA (terminally blocked, uncharged) (synthetic)]", "values": [
      {"measurement": "pKa", "value": 3.9}
    ]}
  ]
}
